Experimental data: publication PMC7048182

Target: V5-tagged LvpIgR expressed in HEK293T cells (Litopenaeus vannamei)

Work on “GST-tagged VP24 of WSSV (natural protein)” yielded a WSSV infection rate of HEK293T cells transfected with LvpIgR, FITC-labelled WSSV preincubated with rPEN2; control preincubated with rTrx: 49.08% of 33.9%.
